# Assay results from patent US20190300875A1 (University of California, published 2019).
# B1: Arabidopsis CIB1 (cryptochrome-interacting basic-helix-loop-helix) protein (other)
# chain: MNGAIGGDLLLNFPDMSVLERQRAHLKYLNPTFDSPLAGFFADSSMITGGEMDSYLSTAGLNLPMMYGETTVEGDSRLSISPETTLGTGNFKKRKFDTETKDCNEKKKKMTMNRDDLVEEGEEEKSKITEQNNGSTKSIKKMKHKAKKEENNFSNDSSKVTKELEKTDYIHVRARRGQATDSHSIAERVRREKISERMKFLQDLVPGCDKITGKAGMLDEIINYVQSLQRQIEFLSMKLAIVNPRPDFDMDDIFAKEVASTPMTVVPSPEMVLSGYSHEMVHSGYSSEMVNSGYLHVNPMQQVNTSSDPLSCFNNGEAPSMWDSHVQNLYGNLGV
# notes: also called AT4G34530
# Biological target: T1, Arabidopsis cryptochrome 2 (CRY2) (Arabidopsis, UniProt Q96524 1-612)
# T1 construct: also called AT1G04400
# Test: yeast β-gal assay, dark or blue light (FIG. 5H)
# Description: The H293 cells were transfected with vector expressing CRY2 only (CRY2), or together with vector expression Myc-BIC1 (CRY2+BIC1) and cultured in dark for 24 hours. The cells were cracked and divided into equally 12 tubes, then treated with blue light (40 μmol m⁻² s⁻¹) for the duration indicated. The sample were analyzed by western blot using anti-CRY2 antibody and anti-Myc antibody sequentially. (FIG. 5B) β-Gal assay of yeast cells expressing indicated proteins kept in darkness (D) or irradiated with blue light (B50, 50 μmol m⁻² s⁻¹) for indicated durations. (FIG. 5C) Fluorescence images showing the formation of CRY2-GFP nuclear bodies in the protoplasts of WT, BIC1-OX line or […]. The protoplasts transformed with CRY2-GFP construct were kept in darkness overnight and then irradiated with blue light (20 μmol m⁻² s⁻¹) for the time indicated. […] Each sample contains at least 50 protoplast. Means and SD (n=3) are shown. (FIG. 5E) BiFC analysis of the blue-light-induced formation of CRY2 nuclear bodies in protoplasts of WT, BIC1-OX line or BIC2-OX line. The protoplasts transformed with cYFP-CRY2 and nYFP-CRY2 constructs were kept in darkness overnight and then irradiated with blue light (20 μmol m⁻² s⁻¹) for the time indicated. […] Each sample contains at least 50 protoplast. Means and SD (n=3) are shown. […]
# T1 sequence (Q96524 whole entry): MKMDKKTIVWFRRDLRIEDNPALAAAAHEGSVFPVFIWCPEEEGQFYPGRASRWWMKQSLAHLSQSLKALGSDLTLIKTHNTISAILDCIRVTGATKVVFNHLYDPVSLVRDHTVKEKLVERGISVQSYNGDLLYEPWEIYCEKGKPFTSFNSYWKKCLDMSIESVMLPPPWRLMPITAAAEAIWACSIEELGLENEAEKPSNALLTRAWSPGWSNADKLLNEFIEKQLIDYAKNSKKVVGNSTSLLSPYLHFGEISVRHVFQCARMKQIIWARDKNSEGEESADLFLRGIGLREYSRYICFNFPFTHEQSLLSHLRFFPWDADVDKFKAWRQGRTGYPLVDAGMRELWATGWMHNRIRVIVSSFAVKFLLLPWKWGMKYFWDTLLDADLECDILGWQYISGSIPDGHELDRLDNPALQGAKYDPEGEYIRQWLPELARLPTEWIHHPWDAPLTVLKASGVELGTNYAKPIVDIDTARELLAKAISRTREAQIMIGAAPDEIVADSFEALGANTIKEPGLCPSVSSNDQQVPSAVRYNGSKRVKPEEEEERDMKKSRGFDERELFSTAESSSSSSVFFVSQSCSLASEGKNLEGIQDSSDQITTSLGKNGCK
binder,measurement,value
B1,binding result,binds
